Data: patent US20240026024A1 (SHANGHAI HUAOTA BIOPHARMACEUTICAL, published 2024)

T1: monkey CD73 (Novoprotein, Cat No. C121) (monkey, UniProt A0A2K5V5U7 27-549)
T1 construct: Bought protein; also called monkey CD73 protein
T1 sequence: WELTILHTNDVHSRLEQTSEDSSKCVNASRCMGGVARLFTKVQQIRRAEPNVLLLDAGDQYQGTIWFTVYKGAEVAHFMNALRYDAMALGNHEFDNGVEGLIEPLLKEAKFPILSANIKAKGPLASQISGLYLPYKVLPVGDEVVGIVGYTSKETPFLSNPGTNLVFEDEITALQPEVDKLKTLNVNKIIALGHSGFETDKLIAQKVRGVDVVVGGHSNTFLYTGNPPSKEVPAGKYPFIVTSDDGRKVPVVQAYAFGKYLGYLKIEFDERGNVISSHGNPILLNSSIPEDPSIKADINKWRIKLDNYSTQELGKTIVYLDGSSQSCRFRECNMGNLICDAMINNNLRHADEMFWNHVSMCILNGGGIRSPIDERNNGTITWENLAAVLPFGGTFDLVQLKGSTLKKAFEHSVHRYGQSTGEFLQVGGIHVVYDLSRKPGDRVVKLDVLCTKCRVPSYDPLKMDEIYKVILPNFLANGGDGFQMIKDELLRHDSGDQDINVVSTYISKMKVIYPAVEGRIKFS

T2: mouse CD73/NT5E (ACRO Biosystems, Cat No. CD3-M52H9) (mouse, UniProt Q61503 29-551)
T2 construct: Bought protein
T2 sequence (looked up): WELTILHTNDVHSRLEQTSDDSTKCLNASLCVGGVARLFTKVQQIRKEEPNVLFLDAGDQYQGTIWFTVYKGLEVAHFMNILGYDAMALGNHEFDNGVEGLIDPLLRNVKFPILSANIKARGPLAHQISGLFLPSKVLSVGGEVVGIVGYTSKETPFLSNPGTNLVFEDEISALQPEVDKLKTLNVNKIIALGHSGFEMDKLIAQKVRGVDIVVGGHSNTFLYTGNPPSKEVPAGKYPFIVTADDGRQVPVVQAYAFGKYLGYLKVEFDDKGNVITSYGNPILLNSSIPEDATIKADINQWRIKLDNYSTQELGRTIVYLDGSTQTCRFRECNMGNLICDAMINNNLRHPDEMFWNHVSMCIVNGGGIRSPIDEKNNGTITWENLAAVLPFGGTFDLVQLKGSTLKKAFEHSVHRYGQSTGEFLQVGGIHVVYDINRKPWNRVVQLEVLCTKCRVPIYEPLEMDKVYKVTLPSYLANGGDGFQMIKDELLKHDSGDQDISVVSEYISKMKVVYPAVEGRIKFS

T3: rat CD73 (Novoprotein, Cat No. CB16) (rat, UniProt P21588 29-551, limits assumed)
T3 construct: Bought protein
T3 sequence (looked up): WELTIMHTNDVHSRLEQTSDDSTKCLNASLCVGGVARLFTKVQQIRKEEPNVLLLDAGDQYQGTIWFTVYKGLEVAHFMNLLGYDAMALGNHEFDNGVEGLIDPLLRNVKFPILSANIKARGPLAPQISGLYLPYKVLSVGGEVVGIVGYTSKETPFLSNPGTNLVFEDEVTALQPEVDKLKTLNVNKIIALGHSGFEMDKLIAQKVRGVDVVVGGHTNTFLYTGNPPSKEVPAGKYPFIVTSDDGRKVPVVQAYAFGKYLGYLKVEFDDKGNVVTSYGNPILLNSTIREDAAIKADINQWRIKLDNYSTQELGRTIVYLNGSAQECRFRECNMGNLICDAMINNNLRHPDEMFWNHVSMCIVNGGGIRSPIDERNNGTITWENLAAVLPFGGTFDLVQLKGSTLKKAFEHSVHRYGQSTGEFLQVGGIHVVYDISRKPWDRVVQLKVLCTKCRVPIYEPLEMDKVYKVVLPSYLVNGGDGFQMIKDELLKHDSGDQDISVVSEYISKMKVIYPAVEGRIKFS

T4: human CD73 protein (ACRO Biosystems, Cat No. CD3-H52H7) (human, UniProt P21589 27-547)
T4 sequence: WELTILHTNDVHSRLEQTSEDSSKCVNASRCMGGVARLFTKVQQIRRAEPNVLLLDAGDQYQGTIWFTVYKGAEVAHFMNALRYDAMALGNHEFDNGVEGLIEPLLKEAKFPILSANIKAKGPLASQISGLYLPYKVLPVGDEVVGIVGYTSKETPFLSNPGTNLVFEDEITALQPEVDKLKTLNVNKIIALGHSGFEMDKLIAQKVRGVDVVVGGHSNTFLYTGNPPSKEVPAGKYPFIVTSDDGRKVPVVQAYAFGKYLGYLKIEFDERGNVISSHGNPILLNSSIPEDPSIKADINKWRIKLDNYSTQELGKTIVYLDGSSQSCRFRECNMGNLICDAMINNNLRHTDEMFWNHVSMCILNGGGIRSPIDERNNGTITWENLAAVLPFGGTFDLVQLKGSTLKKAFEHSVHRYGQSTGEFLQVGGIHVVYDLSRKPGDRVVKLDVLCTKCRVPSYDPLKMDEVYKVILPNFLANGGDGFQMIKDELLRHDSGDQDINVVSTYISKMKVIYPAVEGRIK


Tests used:
[1] = target: T1, monkey CD73 (Novoprotein, Cat No. C121); assay: SPR (Biacore T200), antibody captured on protein A chip, CD73 as analyte, 1:1 model
Method: (§1) The temperatures of the sample chamber and flow path were set at 25° C. The protein A chips separately captured the antigen-binding proteins as ligands, which were immobilized at about 100 RU. […] Ten mM Glycine, pH 1.5, was regenerated for 60 s at a flow rate of 50 L/min for multiple cycle kinetic detection. The binding rate constant (ka), dissociation rate constant (kd) and dissociation equilibrium rate constant (KD) were fitted using the Fit local mode of a 1:1 binding model.

[2] = target: T2, mouse CD73/NT5E (ACRO Biosystems, Cat …); assay: SPR (Biacore T200), antibody captured on protein A chip
Method: as §1

[3] = target: T3, rat CD73 (Novoprotein, Cat No. CB16); assay: as above
Method: as §1

[4] = target: T4, human CD73 protein (ACRO Biosystems, …); assay: cell-based or functional assay
[5] = target: T4, human CD73 protein (ACRO Biosystems, …); assay: SPR (Biacore T200), antibody captured on protein A chip, CD73 as analyte, 1:1 model
Method: as §1, with “μL/min” for “L/min”

Kd [1] [nM]	koff [1] [s⁻¹]	kon [1] [M⁻¹ s⁻¹]	binding result [2]	binding result [3]	EC50(µg/mL), inhibition of recombinant CD73 (CellTiter-Glo) [4] [µg/mL]	Kd [5] [nM]	koff [5] [s⁻¹]	kon [5] [M⁻¹ s⁻¹]	Binder
0.822	0.000148	180000	no binding (tested: up to 50 nM analyte)	no binding (tested: up to 50 nM analyte)	0.746	2.04	6.03e-05	29500	900695 (antibody, V domains shown, Constant regions are not restated) VH: QVQLVESGGGLVKPGGSLRLSCAASGFTFSKYAMSWVRQAPGKGLEWVAEISSGGGYINYADSVTGRFTISRDNAKNSLYLQMNSLRAEDTAVYYCARAIYYYGSSYNYYAMDYWGQGTTVTVSS VL: DIQMTQSPSSLSASVGDRVTITCRASQDVGTAEAWYQQKPGKAPKLLIYWASTRHTGVPSRFSGSGSGTDFTLTISSLQPEDFATYYCQQYSSYPLTFGQGTKLEIK
0.604	0.000214	354000	no binding (tested: up to 50 nM analyte)	no binding (tested: up to 50 nM analyte)	0.751	4.23	0.000928	219000	900696 (antibody, V domains shown, Constant regions are not restated) VH: QVQLVESGGGLVKPGGSLRLSCAASGFTFSKYAMSWIRQAPGKGLEWVAEISSGGGYINYADSVKGRFTISRDNAKNSLYLQMNSLRAEDTAVYYCARAIYYYGSSYNYYAMDYWGQGTTVTVSS VL: DIQMTQSPSSLSASVGDRVTITCRASQDVGTAEAWYQQKPGKAPKLLIYWASTLQSGVPSRFSGSGSGTDFTLTISSLQPEDFATYYCQQYSSYPLTFGQGTKLEIK
2.13	0.000137	64100	no binding (tested: up to 50 nM analyte)	no binding (tested: up to 50 nM analyte)	0.585	1.29	0.000492	380000	900697 (antibody, V domains shown, Constant regions are not restated) VH: QVQLVESGGGLVKPGGSLRLSCAASGFTFSKYAMSWVRQAPGKGLEWVAEISSGGGYINYADSVTGRFTISRDNAKNSLYLQMNSLRAEDTAVYYCARAIYYYGSSYNYYAMDYWGQGTTVTVSS VL: DIQMTQSPSSLSASVGDRVTITCRASQDVGTAEAWYQQKPGKAPKLLIYWASTLQSGVPSRFSGSGSGTDFTLTISSLQPEDFATYYCQQYSSYPLTFGQGTKLEIK
1.41	0.000115	108000	no binding (tested: up to 50 nM analyte)	no binding (tested: up to 50 nM analyte)	0.588	3.12	0.00106	339000	900698 (antibody, V domains shown, Constant regions are not restated) VH: QVQLVESGGGLVKPGGSLRLSCAASGFTFSKYAMSWIRQAPGKGLEWVAEISSGGGYINYADSVKGRFTISRDNAKNSLYLQMNSLRAEDTAVYYCARAIYYYGSSYNYYAMDYWGQGTTVTVSS VL: DIQMTQSPSSLSASVGDRVTITCRASQDVGTAEAWYQQKPGKAPKLLIYWASTRHTGVPSRFSGSGSGTDFTLTISSLQPEDFATYYCQQYSSYPLTFGQGTKLEIK
1.05	0.000358	349000	no binding (tested: up to 50 nM analyte)	no binding (tested: up to 50 nM analyte)	0.262	1.65	0.000439	267000	900581 (antibody, human IgG1, V domains shown) VH: EVQLVESGGGLVKPGGSLKLSCAASGFTFSKYAMSWVRQSPEKRLEWVAEISSGGGYINYPDTVTGRFTISRDNAKNTLYLEMSSLRSGDTAMYYCARAIYYYGSSYNYYAMDYWGQGTSVTVSS VL: DIVMTQSHKFMSTSVGDRVSITCKASQDVGTAEAWYQQKPGQSPKLLIYWASTRHTGVPDRFTGSGSGTDFTLTIGNVQSEDLADYFCQQYSSYPLTFGGGTKLEIK
